Reference: patent publication US20140294825A1 (JN BIOSCIENCES, published 2014)

Legend:
[1] = target: T1, human FcRn (human, UniProt P55899 24-365; P61769 21-119); assay: flow cytometry on NS0 cells expressing human FcRn, 1 µg/ml antibody, pH 6.0 and 7.5
T1 construct: whole, on cells; Heterodimer stably expressed on the surface of NS0 cells; also called neonatal Fc receptor; NS0/FcRn cells
Description: (§1) The ability of Ch9G6-IgG1, Ch9G6-IgG1/M and Ch9G6-MVIgG1 antibodies to bind to FcRn in a pH-dependent manner was analyzed by flow cytometry using NS0 cells expressing human FcRn on the cell surface (NS0/FcRn cells). NS0/FcRn transfectants stably expressing human FcRn, a heterodimer composed of the FcRn α chain and β2-microglubulin, on the cell surface was generated following the general procedure described by Hinton et al. (J. Biol. Chem. 279:6213-6216 2004), which is incorporated herein by reference. Ch9G6-IgG1, Ch9G6-IgG1/M and Ch9G6-MVIgG1 at 1 μg/ml were separately incubated with NS0/FcRn cells at pH 6.0 and 7.5 at the primary staining step following the procedure described by Hinton et al. (supra). Antibodies binding to FcRn were detected using PE-labeled goat polyclonal anti-human gamma chain antibody (for Ch9G6-IgG1 and no antibody control) or PE-labeled goat polyclonal anti-human μ chain antibody (for Ch9G6-IgG1/M, Ch9G6-MVIgG1 and no antibody control) at the secondary staining step.
(§2) The ability of Ch9G6-IgG3D, Ch9G6-IgG3D/M and Ch9G6-MVIgG3D antibodies to bind to FcRn in a pH-dependent manner was analyzed by flow cytometry using NS0 cells expressing human FcRn on the cell surface (NS0/FcRn cells). Ch9G6-IgG3D, Ch9G6-Ig3D/M and Ch9G6-MVIgG3D at 1 μg/ml were separately incubated with NS0/FcRn cells at pH 6.0 and 7.5 at the primary staining step as described in Example 4. Antibodies binding to FcRn were detected using PE-labeled goat polyclonal anti-human gamma chain antibody (for Ch9G6-IgG3D and no antibody control) or PE-labeled goat polyclonal anti-human μ chain antibody (for Ch9G6-IgG3D/M, Ch9G6-MVIgG3D and no antibody control) at the secondary staining step.

[2] = target: T2, recombinant human CD30 extracellular region fused at the C-terminus to the Fc region of human γ1 chain (human); assay: bridging ELISA: CD30-Fc coated, supernatant, then CD79a-Cλ in solution, anti-human λ chain HRP detection; no signal means the anti-CD79a antibody was not captured on CD30-Fc
T2 construct: also called CD30-Fc
T2 sequence (chain, as listed by the source limits assumed): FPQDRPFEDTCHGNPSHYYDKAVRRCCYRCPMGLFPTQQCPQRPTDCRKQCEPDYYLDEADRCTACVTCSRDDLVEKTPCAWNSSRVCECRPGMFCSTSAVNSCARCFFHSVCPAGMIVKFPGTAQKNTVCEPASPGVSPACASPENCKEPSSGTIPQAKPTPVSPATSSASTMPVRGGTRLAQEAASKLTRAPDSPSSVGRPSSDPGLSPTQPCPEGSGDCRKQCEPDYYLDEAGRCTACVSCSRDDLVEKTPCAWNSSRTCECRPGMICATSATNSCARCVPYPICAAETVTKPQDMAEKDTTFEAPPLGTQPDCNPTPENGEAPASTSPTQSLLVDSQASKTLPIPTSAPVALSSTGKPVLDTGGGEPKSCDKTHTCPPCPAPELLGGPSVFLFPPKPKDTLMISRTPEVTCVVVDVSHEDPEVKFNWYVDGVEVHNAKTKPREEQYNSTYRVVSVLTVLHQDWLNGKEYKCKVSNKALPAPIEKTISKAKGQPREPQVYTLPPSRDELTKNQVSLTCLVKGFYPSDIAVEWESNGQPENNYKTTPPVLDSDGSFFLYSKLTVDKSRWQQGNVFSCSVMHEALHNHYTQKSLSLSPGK

[3] = target: T3, recombinant human CD30 extracellular region fused at the C-terminus to the human λ2 constant region (human); assay: bridging ELISA: CD79a-Fc coated, supernatant, then CD30-Cλ in solution, anti-human λ chain HRP detection; no signal means the anti-CD79a antibody did not hold CD30-Cλ
T3 construct: Cysteine at the second position from the carboxyl terminus of the constant region changed to serine; also called CD30-Cλ
T3 sequence (chain, as listed by the source limits assumed): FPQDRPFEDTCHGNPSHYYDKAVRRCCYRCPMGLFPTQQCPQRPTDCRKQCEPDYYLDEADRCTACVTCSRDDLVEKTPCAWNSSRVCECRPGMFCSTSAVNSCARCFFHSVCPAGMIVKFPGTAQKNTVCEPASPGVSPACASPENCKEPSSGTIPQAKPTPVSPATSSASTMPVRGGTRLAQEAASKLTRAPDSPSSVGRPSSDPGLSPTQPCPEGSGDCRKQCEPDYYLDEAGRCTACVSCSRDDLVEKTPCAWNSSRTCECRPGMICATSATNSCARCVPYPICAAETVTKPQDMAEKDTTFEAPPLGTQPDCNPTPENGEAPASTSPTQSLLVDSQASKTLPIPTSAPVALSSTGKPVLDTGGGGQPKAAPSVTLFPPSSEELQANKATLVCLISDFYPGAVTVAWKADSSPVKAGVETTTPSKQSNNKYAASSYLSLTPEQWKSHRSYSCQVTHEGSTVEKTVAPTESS

[4] = target: T1, human FcRn; assay: flow cytometry on NS0 cells expressing human FcRn, pH 6.0 and 7.5, PE anti-human µ chain detection
Description: as §1, with “Ch9G6-IgG1, Ch9G6-IgG1/M and Ch9G6-MVIgG1 at 1 μg/ml were separately incubated with NS0/FcRn cells at pH 6.0 and 7.5 at the primary staining step following the procedure described by Hinton et al. (supra).” left out
as §2, with “Ch9G6-IgG3D, Ch9G6-Ig3D/M and Ch9G6-MVIgG3D at 1 μg/ml were separately incubated with NS0/FcRn cells at pH 6.0 and 7.5 at the primary staining step as described in Example 4.” left out

[5] = target: T4, human CD16 (human, UniProt P08637 17-254); assay: flow cytometry on HEK293 cells transiently expressing human CD16, PE anti-human µ heavy chain detection
T4 construct: whole, on cells; also called Fcγ receptor type III
T4 sequence (P08637 17-254): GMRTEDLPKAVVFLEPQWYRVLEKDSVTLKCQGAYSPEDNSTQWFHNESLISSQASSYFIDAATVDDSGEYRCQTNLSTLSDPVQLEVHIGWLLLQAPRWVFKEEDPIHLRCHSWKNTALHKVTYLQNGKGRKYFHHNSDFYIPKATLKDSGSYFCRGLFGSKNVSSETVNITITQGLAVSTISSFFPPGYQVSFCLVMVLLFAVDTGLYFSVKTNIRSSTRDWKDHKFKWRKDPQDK

[6] = target: T5, Protein G (Streptococcal, UniProt P19909 303-497); assay: Protein G Sepharose column, culture supernatant
T5 construct: Commercial resin; also called Protein G Sepharose column
T5 sequence (P19909 303-497): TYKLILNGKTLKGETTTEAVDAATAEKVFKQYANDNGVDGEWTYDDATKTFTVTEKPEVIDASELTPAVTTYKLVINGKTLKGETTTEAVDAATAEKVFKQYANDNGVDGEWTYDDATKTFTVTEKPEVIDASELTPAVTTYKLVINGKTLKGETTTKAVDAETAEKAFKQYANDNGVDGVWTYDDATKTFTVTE

T1 sequence (P55899 24-365, chain 1 of 2): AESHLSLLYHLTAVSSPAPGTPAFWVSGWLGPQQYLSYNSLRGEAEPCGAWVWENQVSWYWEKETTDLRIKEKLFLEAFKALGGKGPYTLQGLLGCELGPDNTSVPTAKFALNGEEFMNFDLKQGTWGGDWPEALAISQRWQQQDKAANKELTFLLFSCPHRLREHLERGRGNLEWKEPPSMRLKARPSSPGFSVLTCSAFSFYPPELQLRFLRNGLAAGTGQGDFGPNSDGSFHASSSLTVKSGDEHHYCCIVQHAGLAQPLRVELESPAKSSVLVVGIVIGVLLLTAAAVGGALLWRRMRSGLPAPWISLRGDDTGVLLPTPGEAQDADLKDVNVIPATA
T1 sequence (P61769 21-119, chain 2 of 2): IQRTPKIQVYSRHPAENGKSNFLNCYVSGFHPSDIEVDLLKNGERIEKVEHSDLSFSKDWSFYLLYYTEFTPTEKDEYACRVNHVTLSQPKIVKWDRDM

B1: Ch9G6-MVIgG3D (antibody)
heavy: QVQLQQSGPELVKPGASVKISCKASGYTFSTSWMNWVKQRPGQGLEWIGRIYPGDGDTNYNGKFKGKATLTADKSSNTAYMQLSSLTSVDSAVYFCERFYYGNTFAMDYWGQGTSVTVSSASTKGPSVFPLAPCSRSTSGGTAALGCLVKDYFPEPVTVSWNSGALTSGVHTFPAVLQSSGLYSLSSVVTVPSSSLGTQTYTCNVNHKPSNTKVDKRVEPKSCDTPPPCPRCPAPELLGGPSVFLFPPKPKDTLMISRTPEVTCVVVDVSHEDPEVQFKWYVDGVEVHNAKTKPREEQYNSTFRVVSVLTVLHQDWLNGKEYKCKVSNKALPAPIEKTISKTKGQPREPQVYTLPPSREEMTKNQVSLTCLVKGFYPSDIAVEWESSGQPENNYNTTPPMLDSDGSFFLYSKLTVDKSRWQQGNIFSCSVMHEALHNRFTQKSLSLSPGKDQDTAIRVFAIPPSFASIFLTKSTKLTCLVTDLTTYDSVTISWTRQNGEAVKTHTNISESHPNATFSAVGEASICEDDWNSGERFTCTVTHTDLPSPLKQTISRPKGVALHRPDVYLLPPAREQLNLRESATITCLVTGFSPADVFVQWMQRGQPLSPEKYVTSAPMPEPQAPGRYFAHSILTVSEEEWNTGETYTCVVAHEALPNRVTERTVDKSTGKPTLYNVSLVMSDTAGTCY
light: DVLMTQIPLSLPVSLGDQASISCRSSQSIVHSNGNTYLEWYLQKPGQSPKLLIYKVSNRFSGVPDRFSGSGSGTDFTLKISRVEAEDLGVYYCFQGSHVPFTFGSGTKLEIKRTVAAPSVFIFPPSDEQLKSGTASVVCLLNNFYPREAKVQWKVDNALQSGNSQESVTEQDSKDSTYSLSSTLTLSKADYEKHKVYACEVTHQGLSSPVTKSFNRGEC
notes: Pentamer or hexamer of the H2L2 unit in native form (NS0 cells, Protein G purified); also called multivalent IgG3 antibody
B1: binds [1].

B2: Ch9G6-MVIgG1 (antibody)
heavy: not shown
light: DVLMTQIPLSLPVSLGDQASISCRSSQSIVHSNGNTYLEWYLQKPGQSPKLLIYKVSNRFSGVPDRFSGSGSGTDFTLKISRVEAEDLGVYYCFQGSHVPFTFGSGTKLEIKRTVAAPSVFIFPPSDEQLKSGTASVVCLLNNFYPREAKVQWKVDNALQSGNSQESVTEQDSKDSTYSLSSTLTLSKADYEKHKVYACEVTHQGLSSPVTKSFNRGEC
notes: also called multivalent anti-CD79a IgG1 antibody
B2: binds [1]; no binding [2]; no binding [3].

B3: Ch9G6-IgG3D (antibody)
heavy: QVQLQQSGPELVKPGASVKISCKASGYTFSTSWMNWVKQRPGQGLEWIGRIYPGDGDTNYNGKFKGKATLTADKSSNTAYMQLSSLTSVDSAVYFCERFYYGNTFAMDYWGQGTSVTVSSASTKGPSVFPLAPCSRSTSGGTAALGCLVKDYFPEPVTVSWNSGALTSGVHTFPAVLQSSGLYSLSSVVTVPSSSLGTQTYTCNVNHKPSNTKVDKRVEPKSCDTPPPCPRCPAPELLGGPSVFLFPPKPKDTLMISRTPEVTCVVVDVSHEDPEVQFKWYVDGVEVHNAKTKPREEQYNSTFRVVSVLTVLHQDWLNGKEYKCKVSNKALPAPIEKTISKTKGQPREPQVYTLPPSREEMTKNQVSLTCLVKGFYPSDIAVEWESSGQPENNYNTTPPMLDSDGSFFLYSKLTVDKSRWQQGNIFSCSVMHEALHNRFTQKSLSLSPGK
light: DVLMTQIPLSLPVSLGDQASISCRSSQSIVHSNGNTYLEWYLQKPGQSPKLLIYKVSNRFSGVPDRFSGSGSGTDFTLKISRVEAEDLGVYYCFQGSHVPFTFGSGTKLEIKRTVAAPSVFIFPPSDEQLKSGTASVVCLLNNFYPREAKVQWKVDNALQSGNSQESVTEQDSKDSTYSLSSTLTLSKADYEKHKVYACEVTHQGLSSPVTKSFNRGEC
notes: NS0 cells, Protein G purified; monomer of about 150 kDa; also called chimeric anti-CD79a IgG3 monoclonal antibody (first, second and third hinge regions eliminated)
B3: binds [1].

B4: Ch9G6-IgG1 (antibody)
heavy: not shown
light: DVLMTQIPLSLPVSLGDQASISCRSSQSIVHSNGNTYLEWYLQKPGQSPKLLIYKVSNRFSGVPDRFSGSGSGTDFTLKISRVEAEDLGVYYCFQGSHVPFTFGSGTKLEIKRTVAAPSVFIFPPSDEQLKSGTASVVCLLNNFYPREAKVQWKVDNALQSGNSQESVTEQDSKDSTYSLSSTLTLSKADYEKHKVYACEVTHQGLSSPVTKSFNRGEC
notes: also called chimeric IgG1 form of the mouse anti-human CD79a monoclonal antibody 9G6
B4: binds [1].

B5: Ch9G6-IgG3D/M (antibody)
heavy: QVQLQQSGPELVKPGASVKISCKASGYTFSTSWMNWVKQRPGQGLEWIGRIYPGDGDTNYNGKFKGKATLTADKSSNTAYMQLSSLTSVDSAVYFCERFYYGNTFAMDYWGQGTSVTVSSASTKGPSVFPLAPCSRSTSGGTAALGCLVKDYFPEPVTVSWNSGALTSGVHTFPAVLQSSGLYSLSSVVTVPSSSLGTQTYTCNVNHKPSNTKVDKRVEPKSCDTPPPCPRCPDQDTAIRVFAIPPSFASIFLTKSTKLTCLVTDLTTYDSVTISWTRQNGEAVKTHTNISESHPNATFSAVGEASICEDDWNSGERFTCTVTHTDLPSPLKQTISRPKGVALHRPDVYLLPPAREQLNLRESATITCLVTGFSPADVFVQWMQRGQPLSPEKYVTSAPMPEPQAPGRYFAHSILTVSEEEWNTGETYTCVVAHEALPNRVTERTVDKSTGKPTLYNVSLVMSDTAGTCY
light: DVLMTQIPLSLPVSLGDQASISCRSSQSIVHSNGNTYLEWYLQKPGQSPKLLIYKVSNRFSGVPDRFSGSGSGTDFTLKISRVEAEDLGVYYCFQGSHVPFTFGSGTKLEIKRTVAAPSVFIFPPSDEQLKSGTASVVCLLNNFYPREAKVQWKVDNALQSGNSQESVTEQDSKDSTYSLSSTLTLSKADYEKHKVYACEVTHQGLSSPVTKSFNRGEC
notes: NS0 cells, purified on anti-human IgM agarose; mixture of species (650, 180, 90 kDa peaks); also called Ch9G6-Ig3D/M
B5: no binding (tested: 1 µg/ml) [4]; no binding (tested: 1 µg/ml) [5]; no binding [6].
